Data: patent US20200400675A1 (ECS PROGASTRIN, published 2020)

T1: human progastrin (human, UniProt P01350 22-101)
T1 construct: also called hPG; PG
T1 sequence: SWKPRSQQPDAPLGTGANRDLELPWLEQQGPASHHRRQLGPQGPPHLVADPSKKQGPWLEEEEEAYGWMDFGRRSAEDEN


Molecular target: T1, human progastrin
Test: epitope mapping (no details given)

Binder | binding result
mAb13 (hybridoma 2C6C3C7) (antibody, V domains shown, Murine monoclonal antibody) VH: EVQLVESGGGLVQPGGSLKLSCAASGFIFSSYGMSWVRQSPDRRLELVASINTFGDRTYYPDSVKGRFTISRDNAKNTLYLQMTSLKSEDTAIYYCARGTGTYWGQGTTLTVSS VL: not shown | binds
mAb3 (hybridoma 6B5B11C10) (antibody, V domains shown, Murine monoclonal antibody) VH: EVQLQQSGTVLARPGASVKMSCKASGYIFTSYWVHWVKQRPGQGLEWIGGFYPGNSDSRYNQKFKGKATLTAVTSASTAYMDLSSLTNEDSAVYFCTRRDSPQYWGQGTTLTVSS VL: DVLMTQTPLSLPVSLGDQASISCRSSQSIVHSNGNTYLEWYLQKPGQSPKLLIYKVSNRFSGVPDRFSGSGSGTDFTLKISRLEAEDLGVYYCFQGSHVPFTFGGGTKLEIK | binds
mAb4 (hybridoma 20D2C3G2) (antibody, V domains shown, Murine monoclonal antibody) VH: QVQLQQSGAELMKPGASVKISCKATGYTFSSSWIEWLKQRPGHGLEWIGEFLPGSGSTDYNEKFKGKATFTADTSSDTAYMLLSSLTSEDSAVYYCATDGNYDWFAYWGQGTLVTVSA VL: DLVMTQTPLSLPVSLGDQASISCRSSQSLVHSSGVTYLHWYLQKPGQSPKLLIYKVSNRFSGVPDRFSGSGSGTDFTLKISRVEAEDLGVYFCSQSTHVPPTFGSGTKLEIK | binds
mAb16 (hybridoma 1E9D9B6) (antibody, V domains shown, Murine monoclonal antibody) VH: QVQLQQSGAELVKPGASVKLSCKASGYTFTSYYMYWVKQRPGQGLEWIGEINPSNGGTNFNEKFKSKATLTVDKSSSTAYMQLSSLTSEDSAVYYCTRGGYYPFDYWGQGTTLTVSS VL: not shown | binds
mAb19 (hybridoma 1B3B4F11) (antibody, V domains shown, Murine monoclonal antibody) VH: DVQLQESGPGLVKPSQSLSLTCTVTGYSITSDYAWNWIRQFPGNKLEWMGYISFSGYTSYNPSLKSRISVTRDTSRNQFFLQLTSVTTEDTATYYCAREVNYGDSYHFDYWGQGTIVTVSS VL: QLALTQSSSASFSLGASAKLTCTLSSQHRTYTIEWYQQQSLKPPKYVMEVKKDGSHSTGHGIPDRFSGSSSGADRYLSISNIQPEDEAIYICGVGDAIKGQSVFVFGGGTKVTVL | binds
